How the values were obtained:
[1] = tested on: Porcine FXa; assay: Assay for Fxa inhibitory activity (Example 25); assay type: biochemical; conditions: final concentration up to ×10^-5 M; enzyme 1.0 × 10^-8 M
Procedure: I. Porcine FXa (Daichi Seiyaku)
Buffer: Buffer solution for each enzyme is as follow. Thrombin and FXa: 50 mM Tris-HCl, 7.5 mM EDTA-2Na, 175 mM NaCl (pH 8.4) […]
Substrate solution: for the enzymes F, G, H and I, the following substrate f, g, h or i, respectively, was dissolved to a final concentration shown in Table 14.
i. Ratio 1:1 mixture of the following compounds: [drawing 5]
(§1) To wells of an ELISA 96-well microtiter plate, were added a solution of (Arg^59 -Ala^107) SLPI obtained in Example 23 and then the enzyme solution, and the mixture was incubated at 37° C. for 10 minutes. Next, the substrate solution was added to develop the color, whose absorption was then measured at 405 nm. As a control, SLPI was used.

[2] = biological target: T1, polymorphonuclear leucocyte elastase from human sputum (Homo sapiens, UniProt P08246); assay: Treatment with polymorphonuclear leucocyte elastase from human sputum (Examples 27, 30); assay type: in vitro ADME; conditions: 37° C.
T1 construct: Polymorphonuclear leukocyte elastase from human sputum (EPC Co; Funakoshi Yakuhin); purchased EPC Co. (via Funakoshi Yakuhin); host or cells: human sputum
T1 sequence (P08246 30-267): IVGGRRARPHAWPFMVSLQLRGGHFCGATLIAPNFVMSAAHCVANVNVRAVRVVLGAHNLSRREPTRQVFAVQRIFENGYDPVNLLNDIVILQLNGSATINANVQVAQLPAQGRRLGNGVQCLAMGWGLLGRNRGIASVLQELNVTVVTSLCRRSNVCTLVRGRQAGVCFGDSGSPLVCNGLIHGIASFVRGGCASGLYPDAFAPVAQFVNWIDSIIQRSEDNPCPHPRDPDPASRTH
Procedure: Polymorphonuclear leucocyte elastase from human sputum (EPC, Funakoshi Yakuhin) and SLPI were separately dissolved in a buffer (0.1M HEPES, 0.1M NaCl, 0.1% PEG 6000, pH 7.5) and the elastase solution was added to the SLPI solution, and the mixture was incubated at 37° C. Samples were taken as time elapsed, and to each sample were added Tris-HCl buffer (pH 6.8), SDS, 2-mercaptolethanol, glycerol, and Coomassie Brilliant Blue to final concentrations of 50 mM, 4 w/v %, 2 v/v %, 12 v/v % and 0.01 w/v % respectively. The mixture was subjected to SDS-polyacrylamide gel electrophoresis using Tricine (Sigma) as a polar buffer (Schagger, H., Anal. Biochem. 166, 368, 1987). After the electrophoresis, the gel was stained with Coomassie Brilliant Blue G-250, and decoloured with 50% (v/v) methanol/10% (v/v) acetic acid.
(1) A result of a test, wherein elastase was added to 100 μM SLPI to an elastase final concentration of 200 μM, and the mixture was incubated at 37° C. up to 192 hours taking samples as time elapsed, is shown in FIG. 20. […]
(3) Next, polypeptides thus generated were electrically transferred to a membrane (Immobilon-p^SQ Millipore) using a Milli Blot-SDE apparatus (Millipore). […] After drying, relevant bands were cut out, and the peptide was cleaved from the N-terminal using an Applied Biosystems Protein-Sequencer (Applied Biosystems; 477A), and after PTH-conversion, the resulting amino acid derivatives were analyzed by a PTH-Amino acid analyzer (Applied Biosystems, 120A) to determine the N-terminal amino acid sequence.
According to the same procedure as described in Example 27, (Asn^55 -Ala^107) SLPI (final concentration 100 μM) was treated with elastase (final concentration 200 μM) at 37° C. for 48 hours. The sample was separated by SDS-PAGE, and electrically transferred to a filter as described in Example 27, a band corresponding to a molecular weight of about 5,500 was cut out, and an N-terminal amino acid sequence was analyzed.

[3] = biological target: T2, Human plasma plasmin (Homo sapiens, UniProt P00747); assay: Assay for plasmin inhibitory activity (Example 36); assay type: biochemical; conditions: final concentration up to ×10^-5 M; enzyme 1.0 × 10^-7 M
T2 construct: (6) Human plasma plasmin (Kabi, Daiichi Kagaku Yakuhin); purchased Kabi (via Daiichi Kagaku Yakuhin); host or cells: human plasma
Procedure: G. Human plasma plasmin (sigma)
Plasmin: 50 mM Tris-HCl, 100 mM NaCl (pH 7.4) […]
Substrate solution: for the enzymes F, G, H and I, the following substrate f, g, h or i, respectively, was dissolved to a final concentration shown in Table 24.
g. H.D-Val-Leu-Lys-pNA (Kabi Vitrum)
as §1, with “(Arg^58” for “(Arg^59”, “34” for “23”

T2 sequence (P00747 581-810 limits assumed): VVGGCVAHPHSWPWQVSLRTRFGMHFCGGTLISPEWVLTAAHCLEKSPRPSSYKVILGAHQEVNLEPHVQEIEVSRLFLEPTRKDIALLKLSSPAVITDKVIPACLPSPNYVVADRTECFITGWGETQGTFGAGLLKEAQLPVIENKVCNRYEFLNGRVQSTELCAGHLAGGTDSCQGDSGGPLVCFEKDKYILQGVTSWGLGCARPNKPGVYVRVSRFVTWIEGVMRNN
T2 sequence (P00747 97-580 partner limits assumed): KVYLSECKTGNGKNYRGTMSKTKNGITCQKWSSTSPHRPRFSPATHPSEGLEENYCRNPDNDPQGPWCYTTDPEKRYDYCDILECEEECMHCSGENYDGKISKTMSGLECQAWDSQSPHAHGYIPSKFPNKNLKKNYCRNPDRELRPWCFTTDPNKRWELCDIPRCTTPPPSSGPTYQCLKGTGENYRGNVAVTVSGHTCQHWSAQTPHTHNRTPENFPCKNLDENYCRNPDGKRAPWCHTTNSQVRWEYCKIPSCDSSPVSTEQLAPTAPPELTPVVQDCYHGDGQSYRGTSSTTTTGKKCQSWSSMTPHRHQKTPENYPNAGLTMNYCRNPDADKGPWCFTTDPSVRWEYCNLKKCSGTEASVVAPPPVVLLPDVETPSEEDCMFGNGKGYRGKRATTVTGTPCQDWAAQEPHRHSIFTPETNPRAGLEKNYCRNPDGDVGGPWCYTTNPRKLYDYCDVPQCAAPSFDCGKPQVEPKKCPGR

B1: SLPI: Human secretory leukoprotease inhibitor; recombinant SLPI of Reference Example 1 used as control (protein)
chain: SGKSFKAGVCPPKKSAQCLRYKKPECQSDWQCPGKKRCCPDTCGIKCLDPVDTPNPTRRKPGKCPVTYGQCLMLNPPNFCEMDGQCKRDLKCCMGMCGKSCVSPVKA
For B1, the “inhibitory activity to FXa” value [1] was “did not exhibit inhibitory activity”, the “SDS-PAGE band of SLPI on treatment with elastase” value ([2]; 50 μM SLPI, not less than 100 μM elastase, one hour) was “disappeared significantly” and the “SDS-PAGE band of SLPI on treatment with elastase” value ([2]; 100 μM SLPI, 200 μM elastase) was “rapidly disappeared after 45 minute incubation”. The “selective cleavage sites with elastase from human sputum” value ([2]; N-terminal sequencing of SDS-PAGE bands) was “between Ser^15 -Ala^16, and Thr^57 -Arg^58” and the “inhibitory activity to plasmin” value [3] was “did not exhibit inhibitory activity”.
